# From patent publication US20240307564A1 (SUZHOU TRANSCENTA THERAPEUTICS, published 2024)
# B1: 18B10-HaLa (antibody, human IgG1, kappa, V domains shown)
# VH: QVQLVQSGAEVKKPGASVKVSCKASGYTFTGYNMNWVRQAPGQGLEWMGNIDPYYGGTSYNQKFKGRVTMTIDKSTSTVYMELSSLRSEDTAVYYCARMYHGNAFDYWGQGTTVTVSS
# VL: DIVMTQSPDSLAVSLGERATINCKSSQSLLNSGNLKNYLTWYQQKPGQPPKLLIYWASTRKSGVPDRFSGSGSGTDFTLTISSLQAEDVAVYYCQNDYSYPLTFGGGTKVEIKR
# notes: humanized; variable regions fused with human IgG1 and human kappa constant regions; also called humanized 18B10 HaLa
# How the values were obtained:
# human CLDN18.2 [1] = molecular target: T1, human CLDN18.2 (human); experiment: KinExA on gastric cell lines
# T1 construct: On HEK293-CLDN18.2 and MKN45-CLDN18.2 transfected cells and on the gastric cell lines NUGC4 and KATOIII (endogenous); also called Claudin18.2; claudin 18 splice variant 2
# human CLDN18.2 [2] = molecular target: T1, human CLDN18.2; experiment: cell-based or functional assay
binder,measurement,setting,value
B1,fold higher affinity than IMAB362,human CLDN18.2 [1],> 8 fold
same,ADCC EC50 on NUGC4 cells,human CLDN18.2 [2],~0.59 µg/mL
same,ADCC reporter EC50,human CLDN18.2 [2],0.05 µg/mL
same,CDC activity,human CLDN18.2 [2],> 20 fold
